The values that follow are results of earlier work, collected in article PMC3910004.

This data set has as its target T1, human interleukin-6 receptor (hIL-6R) (Homo sapiens) (UniProt P08887).
T1 sequence: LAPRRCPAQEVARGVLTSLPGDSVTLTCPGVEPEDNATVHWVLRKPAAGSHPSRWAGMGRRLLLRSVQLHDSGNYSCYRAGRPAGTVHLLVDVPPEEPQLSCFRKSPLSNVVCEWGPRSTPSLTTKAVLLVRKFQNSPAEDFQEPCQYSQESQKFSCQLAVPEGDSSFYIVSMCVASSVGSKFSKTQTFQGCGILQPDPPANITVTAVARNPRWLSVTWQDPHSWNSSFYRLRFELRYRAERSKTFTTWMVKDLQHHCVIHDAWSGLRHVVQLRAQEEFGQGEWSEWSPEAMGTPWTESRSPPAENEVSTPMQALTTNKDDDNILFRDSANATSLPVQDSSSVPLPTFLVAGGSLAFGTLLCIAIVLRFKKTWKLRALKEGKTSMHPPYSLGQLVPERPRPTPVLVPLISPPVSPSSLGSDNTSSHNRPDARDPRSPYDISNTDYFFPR
The following applies: Cell binding by flow cytometry, 50 nM conjugate, 45 min, serum-free medium, 37 °C (stated for the uptake in cytotoxicity assays); binding buffer details not in …. Background: In flow cytometry, cells or beads pass a laser one at a time.

Take GGGGAGGCUGUGGUGAGGG [AIR-3A]: the Kd – broadly, the constant that tells how readily two partners part at equilibrium – is 8.5 nM.
